pKd: −log10 of the molar value.
Molecular target: Biotinylated human ACE2 (angiotensin-converting enzyme 2) (human) (UniProt Q9BYF1)
Assay: SPR

Trimer spike of SARS-CoV-2, furin cleavage site deleted and two stabilizing mutations, C-terminal His-tag (domain or fragment)
pKd: 9.15

From article PMC8227597
